{"source": "paper PMC11215065", "about": "“The HHV-6B U20 glycoprotein binds ULBP1, masking it from recognition by NKG2D and interfering with natural killer cell activation” (Frontiers in Immunology, 2024)", "binders": {"B1": {"name": "ULBP1-Fc (Fc fusion)", "chain": "GWVDTHCLCYDFIITPKSRPEPQWCEVQGLVDERPFLHYDCVNHKAKAFASLGKKVNVTKTWEEQTETLRDVVDFLKGQLLDIQVENLIPIEPLTLQARMSCEHEAHGHGRGSWQFLFNGQKFLLFDSNNRKWTALHPGAKKMTEKWEKNRDVTMFFQKISLGDCKMWLEEFLMYWEQMLDPTKPPSLAPG", "modifications": "biotin on the BirA recognition sequence (for SPR)"}}, "target": "T1, Soluble U20 extracellular domain (sU20) of HHV-6B (HHV-6B, nine N-linked glycosylation sites with high mannose glycans; after EndoH a single GlcNAc at each site)", "T1 construct": "HHV-6B U20 glycoprotein, extracellular domain; Dimer in solution when alone (SEC-MALS, SEC-SAXS); Used glyco-intact or EndoH-treated, as told for each assay; also called soluble recombinant U20; source: stably transduced HEK293 GnTI cells, purified from supernatant (Nickel-NTA, cation exchange, SEC); in some cases treated with EndoH; not shown: 6xHIS, C-terminal, kept", "test": "SPR; Biacore 3000; biotinylated ULBP1-Fc (1000-2500 RU) on a Neutravidin coated CM5 chip; U20 injected at 0.125-32 μM; CD200 receptor Fc flow cell subtracted; equilibrium fit, one site specific binding, apparent; 20°C", "conditions": "both partners purified", "data": [{"binder": "B1", "values": [{"measurement": "Kd", "result": "~230", "unit": "nM"}]}]}
